Measurements published in US20190231872A1 (INDUSTRY ACADEMIC COOPERATION FOUNDATION HALLYM UNIVERSITY, published 2019).
Read-outs that look alike come from different tables or passages of the source.

T1: hTM4SF5EC2-C cyclic peptide (human, cyclic: disulfide bond between the cysteines that replace glycine 133 and valine 156 (3rd and 26th residue of the peptide); biotinylated for SPR)
T1 construct: Chemically synthesized (Peptron); also called cyclic TM4SF5 peptide; TM4SF5 cyclic peptide
T1 peptide: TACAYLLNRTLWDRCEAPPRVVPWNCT

T2: hTM4SF5R2-3 peptide (human)
T2 peptide: NRTLWDRCEAPPRV

T3: Myc-tagged recombinant human TM4SF5 protein (human, UniProt O14894 1-197)
T3 construct: whole, on cells; tested in cell lysates by Western blot and immunoprecipitation, not on whole cells; also called hTM4SF5; recombinant TM4SF5 protein; not shown: C-terminal Myc-His tag of the vector pcDNA-3.1/Myc-His(-)B
T3 sequence (looked up): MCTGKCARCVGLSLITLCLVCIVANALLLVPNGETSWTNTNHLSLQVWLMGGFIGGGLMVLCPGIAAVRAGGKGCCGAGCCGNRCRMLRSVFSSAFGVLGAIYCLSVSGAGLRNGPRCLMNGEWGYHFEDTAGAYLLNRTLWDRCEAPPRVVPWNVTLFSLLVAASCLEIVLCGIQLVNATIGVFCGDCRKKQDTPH


Assays:
[1] = biological target: T1, hTM4SF5EC2-C cyclic peptide; assay: SPR, Kd of hEC2-C-2 against Kd of mEC2-C
Description: (§1) The affinities of anti-hTM4SF5 monoclonal antibody (mEC2-C) and humanized anti-TM4SF5 antibody (hEC2-C-2) binding to hTM4SF5EC2-C cyclic peptide were measured at 25° C. using the Reichert SPR system. Biotinylated peptides were captured from each flowing cell surface of a streptoavidin-coated sensor chip. Biotin was used as a negative control. Anti-hTM4SF5 monoclonal antibody (mEC2-C) and humanized anti-TM4SF5 antibody were injected at a flow rate of 30 ml/min. Data were evaluated using Reichert SPR evaluation software.

hTM4SF5R2-3 peptide [2] = biological target: T2, hTM4SF5R2-3 peptide; assay: ELISA on coated hTM4SF5R2-3, purified antibody titrated
[3] = biological target: T1, hTM4SF5EC2-C cyclic peptide; assay: ELISA on coated hTM4SF5EC2-C, purified antibody titrated
[4] = biological target: T1, hTM4SF5EC2-C cyclic peptide; assay: SPR (Reichert SPR 7500DC), biotinylated peptide on streptavidin chip, antibody injected, 25 C
Description: as §1

[5] = biological target: T1, hTM4SF5EC2-C cyclic peptide; assay: SPR (Reichert SPR 7500DC), cyclic peptide hTM4SF5EC2-C on chip, antibody 0 to 3.75 nM, 1:1 binding with mass transfer
Description: as §1

hTM4SF5R2-3 peptide [6] = biological target: T2, hTM4SF5R2-3 peptide; assay: ELISA on coated hTM4SF5R2-3, purified antibody titrated
[7] = biological target: T1, hTM4SF5EC2-C cyclic peptide; assay: ELISA on coated hTM4SF5EC2-C, purified antibody titrated
[8] = biological target: T3, Myc-tagged recombinant human TM4SF5 …; assay: Western blot of HEK 293F-EV and HEK 293F-TM4SF5 lysates with hybridoma culture supernatant
[9] = biological target: T1, hTM4SF5EC2-C cyclic peptide; assay: SPR (Reichert SPR 7500DC), biotinylated cyclic peptide on streptavidin chip, antibody 0 to 80 nM, 1:1 binding with mass transfer
Description: FIG. 6 represents purification and characterization of mouse anti-TM4SF5 monoclonal antibodies recognizing TM4SF5 cyclic peptides. (A) Hydrops abdominis was producted from BALB/c mice by injecting i.p. into the abdominal cavity with hybridoma clone (2A10 clone) derived from FIG. 5. Anti-TM4SF5 monoclonal antibody was purified using protein-A agarose column chromatography and the purified antibody was identified by SDS-PAGE and Coomassie blue staining. (B) The isotype was determined by obtaining titration curves using purified monoclonal antibodies. (C) A binding affinity of monoclonal antibody for cyclic peptide hTM4SF5EC2-C was determined by using ELISA. (D) A binding affinity of monoclonal antibody for cyclic peptide […] was determined by using Reichert Analytical Instruments SPR 7500DC (Reichert). Biotinylated peptides were immobilized on streptavidin chip and the amount of antibody was increased. Kinetic parameters of binding reactions are expressed under sensorgrams.
as §1, with “Anti-hTM4SF5 monoclonal antibody (mEC2-C) and humanized anti-TM4SF5 antibody were injected at a flow rate of 30 ml/min.” left out

Row | Binder | fold lower Kd than the original mouse monoclonal antibody mEC2-C [1] [fold] | binding result (hTM4SF5R2-3 peptide [2]) | EC50 (read off the curve) [3] [nM] | Kd [4] [nM] | Kd [5] [nM] | koff [5] [s⁻¹] | kon [5] [M⁻¹ s⁻¹] | binding result (hTM4SF5R2-3 peptide [6]) | EC50 (read off the curve) [7] [nM] | koff [4] [s⁻¹] | binding result [8] | Kd [9] [nM] | kon [9] [M⁻¹ s⁻¹]
1 | humanized anti-TM4SF5 antibody hEC2-C-2 (antibody, V domains shown, hEC2-C-2 is the clone that was expressed and tested; also called hEC2-C-2 Ab; hEC2-C-2 IgG) VH: EVQLVESGGGLVQPGGSLRLSCAASGFSLTSYGVTWVRQAPGKGLEWLGVIWSDGSTNYQSALISRLTISRDNSKNTAYLQMNSLRAEDTAVYYCARPSNYYYFDYWGQGTLVTVSS VL: DIQMTQSPSSLSASVGDRVTITCKSSQSLFDRRTRKTYLAWYQQKPGKAPKLLISWASTRESGVPSRFSGSGSGTDFTLTISSLQPEDFATYYCKQSYNLFTFGQGTKVEIK | ~20 | no binding (tested: 1e-6 M) | ~0.1 | ~0.0227 | 0.0227 | 1e-05 | 440000 | – | – | – | – | – | –
2 | anti-TM4SF5 monoclonal antibody mEC2-C (antibody, V domains shown, also called mouse anti-TM4SF5 monoclonal antibody; anti-hTM4SF5 monoclonal antibody) VH: QVQLEESGPGLVAPSQSLSIICTVSGFSLTSYGVTWVRQPPGKGLEWLGVIWSDGSTNYQSALISRLTISRDNSKSQAFLKLNSLQTDDTATYYCARPSNYYYFDYWGQGTTLTVSS VL: DIVMTQSPSSLAVSAGERVTLSCKSSQSLFDRRTRKTYLAWYQQKPGQSPKLLISWASTRESGVPDRFTGSGSGTDFTLTISSVQAEDLAVYYCKQSYNLFTFGGGTKLEIK | – | – | – | ≤ 0.48 | – | – | – | no binding (tested: 1e-6 M) | ~3 | ≤ 1e-05 | binds | 0.488 | 20500
